One substance from patent publication US6313088A, “8-[(2-hydroxy-4-methoxy benzoyl) amino]-octanoic acid compositions for delivering active agents” (Emisphere Technologies, Inc., priority 1997, dated 2001) can be followed below.

On the set-up of this series: species or system Rats. The note with it: rat, in vivo, 1 mg/kg. On the procedure: Rats were administered the dosing composition by intracolonic instillation.

With interferon, the “Mean peak serum interferon concentration” value was determined as 79±100.
